Data on one protein can be found in article PMC3229571, “ZipA Binds to FtsZ with High Affinity and Enhances the Stability of FtsZ Protofilaments” (PLoS ONE, 2011).

This series deals with the molecule itself. Nature of the series: co-sedimentation; FtsZ 6 µM, 50 mM PIPES pH 6.0, 6.8 or 8.0, 1 mM MgCl2, 1 mM GTP, 10 min at 37°C; polymers sedimented at 88,760 x g, 30°C, 30 min; SDS-PAGE of pellets.

B1: FtsZ (natural protein, E. coli, UniProt P0A9A6 1-383, looked up)
chain: MFEPMELTNDAVIKVIGVGGGGGNAVEHMVRERIEGVEFFAVNTDAQALRKTAVGQTIQIGSGITKGLGAGANPEVGRNAADEDRDALRAALEGADMVFIAAGMGGGTGTGAAPVVAEVAKDLGILTVAVVTKPFNFEGKKRMAFAEQGITELSKHVDSLITIPNDKLLKVLGRGISLLDAFGAANDVLKGAVQGIAELITRPGLMNVDFADVRTVMSEMGYAMMGSGVASGEDRAEEAAEMAISSPLLEDIDLSGARGVLVNITAGFDLRLDEFETVGNTIRAFASDNATVVIGTSLDPDMNDELRVTVVATGIGMDKRPEITLVTNKQVQQPVMDRYQQHGMAPLTQEQKPVAKVVNDNAPQTAKEPDYLDIPAFLRKQAD
notes: Cell division protein FtsZ, E. coli; no tag is named; also called recombinant E. coli FtsZ; source: E. coli BL21, purified (ammonium sulfate precipitation, desalting, polymerization and depolymerization step)
In the case of B1, the binding result is “binds”.
